This passage reports Kd results from patent US20250313646A1 (AUGMENT BIOLOGICS, published 2025).

By Kd is commonly meant a measure of binding affinity in units of concentration. A high value points to weaker binding.

For experiment [1], the target named is T1, full-length, biotinylated, human CD20 (Acro Biosystems) (human, UniProt P11836 1-297, biotinylated (site not stated)).
T1 construct: mature; No construct limits or tags are stated for the bought reagent; also called CD20 antigen
T1 sequence (looked up): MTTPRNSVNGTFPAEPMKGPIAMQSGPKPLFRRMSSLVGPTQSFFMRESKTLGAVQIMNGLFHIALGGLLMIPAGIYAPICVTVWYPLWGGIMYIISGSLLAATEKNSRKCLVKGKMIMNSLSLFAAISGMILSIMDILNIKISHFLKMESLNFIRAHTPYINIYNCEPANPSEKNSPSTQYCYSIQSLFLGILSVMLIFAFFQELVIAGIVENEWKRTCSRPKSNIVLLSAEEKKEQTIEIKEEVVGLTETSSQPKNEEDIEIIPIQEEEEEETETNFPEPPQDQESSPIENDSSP
The experiment in a line: BLI (Octet RED96e), biotinylated CD20 on biosensor, antibody at 100 nM.

Experiment [2] addresses T1, full-length, biotinylated, human CD20 …. In words: BLI (Octet RED96e), biotinylated CD20 on biosensor, antibody at 25 nM. In general terms: Biolayer interferometry detects binding as a change in optical thickness at a sensor tip.
Experiment [3] shares this target. In words: BLI (Octet RED96e), biotinylated CD20 on biosensor, antibody at 50 nM.

B1: wildtype Rituximab (antibody)
chain 1: not shown
chain 2: QIVLSQSPAILSASPGEKVTMTCRASSSVSYIHWFQQKPGSSPKPWIYATSNLASGVPVRFSGSGSGTSYSLTISRVEAEDAATYYCQQWTSNPPTFGGGTKLEIKRTVAAPSVFIFPPSDEQLKSGTASVVCLLNNFYPREAKVQWKVDNALQSGNSQESVTEQDSKDSTYSLSSTLTLSKADYEKHKVYACEVTHQGLSSPVTKSFNRGEC
Consider B1, for which the Kd in experiment [1] came out at 0.169 nM; in experiment [2], 0.171 nM; in experiment [3], 0.169 nM.
